Publication PMC9352680, “A comprehensive thermodynamic model for RNA binding by the Saccharomyces cerevisiae Pumilio protein PUF4”
Residue numbers refer to the chain shown, from its start. Names may count otherwise.

T1: PUF4 RNA-binding domain (Saccharomyces cerevisiae, UniProt P25339 537-888)
T1 sequence: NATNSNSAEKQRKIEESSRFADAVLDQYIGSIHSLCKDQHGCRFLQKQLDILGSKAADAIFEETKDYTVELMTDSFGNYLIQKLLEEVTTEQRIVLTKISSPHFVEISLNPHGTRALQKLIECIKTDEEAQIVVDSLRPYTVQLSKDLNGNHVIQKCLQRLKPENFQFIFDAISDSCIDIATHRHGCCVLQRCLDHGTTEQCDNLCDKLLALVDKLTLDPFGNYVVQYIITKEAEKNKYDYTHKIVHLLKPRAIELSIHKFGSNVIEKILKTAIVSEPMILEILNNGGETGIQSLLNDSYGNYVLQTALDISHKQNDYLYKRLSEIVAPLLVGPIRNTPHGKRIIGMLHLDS

B1: Ib_S1_P4E.1_K4.1_C4.1_H4.1_A4.1_[T7C]_F4.1_[T8C]_T4.1 (ssRNA)
RNA: UCUCUUUGUAUACCAUCUCUU
B2: Ic_S4_P4E.1_K4.1_C4.1_H4.1_A4.1_[A6C]_[T7G]_F4.1_[T8G]_[A9C]_T4.1 (ssRNA)
RNA: UUUGACAACUGAUCGUUCUUUCUUGUAUCGGCUUCUUUCUCGAUCAGUUGUCUUU
B3: Ic_S4_P4E.1_K4.1_C4.1_H4.1_A4.1_[A6C]_[T7C]_F4.1_[T8A]_T4.1 (ssRNA)
RNA: B2 RNA with G30C, G31A, C32A
B4: Ic_S4_P4E.1_K4.1_C4.1_H4.1_A4.1_[A6C]_[T7A]_F4.1_[T8A]_[A9C]_T4.1 (ssRNA)
RNA: B2 RNA with G30A, G31A
B5: Ic_S4_P4E.1_K4.1_C4.1_H4.1_A4.1_[A6T]_[T7C]_F4.1_[T8C]_[A9T]_T4.1 (ssRNA)
RNA: B2 RNA with C29U, G30C, G31C, C32U
B6: Ic_S4_P4E.1_K4.1_C4.1_H4.1_A4.1_[A6T]_[T7G]_F4.1_[T8C]_[A9C]_T4.1 (ssRNA)
RNA: B2 RNA with C29U, G31C
B7: Ic_S4_P4E.1_K4.1_C4.1_H4.1_A4.1_[T7C]_F4.1_[T8G]_[A9T]_T4.1 (ssRNA)
RNA: B2 RNA with C29A, G30C, C32U
B8: Ic_S4_P4E.1_K4.1_C4.1_H4.1_A4.1_[A6C]_F4.1_[T8G]_[A9G]_T4.1 (ssRNA)
RNA: B2 RNA with G30U, C32G
B9: Ic_S4_P4E.1_K4.1_C4.1_H4.1_A4.1_[A6T]_[T7C]_F4.1_[A9C]_T4.1 (ssRNA)
RNA: B2 RNA with C29U, G30C, G31U
B10: Ic_S4_P4E.1_K4.1_C4.1_H4.1_A4.1_[A6T]_[T7A]_F4.1_[T8C]_T4.1 (ssRNA)
RNA: B2 RNA with C29U, G30A, G31C, C32A
B11: Ic_S4_P4E.1_K4.1_C4.1_H4.1_A4.1_[A6T]_[T7C]_F4.1_[T8G]_[A9C]_T4.1 (ssRNA)
RNA: B2 RNA with C29U, G30C
B12: Ic_S4_P4E.1_K4.1_C4.1_H4.1_A4.1_[A6T]_[T7C]_F4.1_[A9T]_T4.1 (ssRNA)
RNA: B2 RNA with C29U, G30C, G31U, C32U
B13: Ic_S4_P4E.1_K4.1_C4.1_H4.1_A4.1_[A6T]_F4.1_[T8G]_[A9G]_T4.1 (ssRNA)
RNA: B2 RNA with C29U, G30U, C32G
B14: Ic_S4_P4E.1_K4.1_C4.1_H4.1_A4.1_[A6T]_[T7A]_F4.1_[T8A]_[A9T]_T4.1 (ssRNA)
RNA: B2 RNA with C29U, G30A, G31A, C32U
B15: Ic_S4_P4E.1_K4.1_C4.1_H4.1_A4.1_[A6C]_[T7C]_F4.1_[T8C]_[A9G]_T4.1 (ssRNA)
RNA: B2 RNA with G30C, G31C, C32G
B16: Ic_S4_P4E.1_K4.1_C4.1_H4.1_A4.1_[A6T]_[T7C]_F4.1_[A9G]_T4.1 (ssRNA)
RNA: B2 RNA with C29U, G30C, G31U, C32G
B17: Ic_S4_P4E.1_K4.1_C4.1_H4.1_A4.1_[A6T]_[T7A]_F4.1_[T8C]_[A9C]_T4.1 (ssRNA)
RNA: B2 RNA with C29U, G30A, G31C
B18: Ic_S4_P4E.1_K4.1_C4.1_H4.1_A4.1_[T7A]_F4.1_[A9T]_T4.1 (ssRNA)
RNA: B2 RNA with C29A, G30A, G31U, C32U
B19: Ic_S4_P4E.1_K4.1_C4.1_H4.1_A4.1_[A6T]_[T7G]_F4.1_[T8G]_[A9T]_T4.1 (ssRNA)
RNA: B2 RNA with C29U, C32U
B20: Ic_S4_P4E.1_K4.1_C4.1_H4.1_A4.1_[A6C]_[T7C]_F4.1_[A9G]_T4.1 (ssRNA)
RNA: B2 RNA with G30C, G31U, C32G
B21: Ic_S4_P4E.1_K4.1_C4.1_H4.1_A4.1_[A6C]_F4.1_[T8A]_[A9G]_T4.1 (ssRNA)
RNA: B2 RNA with G30U, G31A, C32G
B22: Ic_S4_P4E.1_K4.1_C4.1_H4.1_A4.1_[T7C]_F4.1_[T8A]_[A9C]_T4.1 (ssRNA)
RNA: B2 RNA with C29A, G30C, G31A
B23: Ic_S4_P4E.1_K4.1_C4.1_H4.1_A4.1_[A6C]_F4.1_[T8A]_[A9C]_T4.1 (ssRNA)
RNA: B2 RNA with G30U, G31A
B24: Ic_S4_P4E.1_K4.1_C4.1_H4.1_A4.1_F4.1_[A9C]_T4.1 (ssRNA)
RNA: B2 RNA with C29A, G30U, G31U
B25: Ic_S4_P4E.1_K4.1_C4.1_H4.1_A4.1_[A6T]_[T7A]_F4.1_[T8G]_[A9C]_T4.1 (ssRNA)
RNA: B2 RNA with C29U, G30A
B26: Ic_S4_P4E.1_K4.1_C4.1_H4.1_A4.1_[A6T]_F4.1_[A9T]_T4.1 (ssRNA)
RNA: B2 RNA with C29U, G30U, G31U, C32U
B27: Ic_S4_P4E.1_K4.1_C4.1_H4.1_A4.1_[A6T]_[T7G]_F4.1_[A9G]_T4.1 (ssRNA)
RNA: B2 RNA with C29U, G31U, C32G
B28: Ic_S4_P4E.1_K4.1_C4.1_H4.1_A4.1_[A6C]_[T7A]_F4.1_[T8A]_[A9T]_T4.1 (ssRNA)
RNA: B2 RNA with G30A, G31A, C32U
B29: Ic_S4_P4E.1_K4.1_C4.1_H4.1_A4.1_[A6T]_[T7C]_F4.1_[T8A]_[A9C]_T4.1 (ssRNA)
RNA: B2 RNA with C29U, G30C, G31A
B30: Ic_S4_P4E.1_K4.1_C4.1_H4.1_A4.1_[A6T]_[T7C]_F4.1_[T8C]_[A9G]_T4.1 (ssRNA)
RNA: B2 RNA with C29U, G30C, G31C, C32G
B31: Ic_S4_P4E.1_K4.1_C4.1_H4.1_A4.1_[A6T]_F4.1_[T8A]_T4.1 (ssRNA)
RNA: B2 RNA with C29U, G30U, G31A, C32A
B32: Ic_S4_P4E.1_K4.1_C4.1_H4.1_A4.1_F4.1_T4.1 (ssRNA)
RNA: B2 RNA with C29A, G30U, G31U, C32A
B33: Ic_S4_P4E.1_K4.1_C4.1_H4.1_A4.1_[A6C]_[T7C]_F4.1_[T8C]_[A9C]_T4.1 (ssRNA)
RNA: B2 RNA with G30C, G31C
B34: Ic_S4_P4E.1_K4.1_C4.1_H4.1_A4.1_[A6C]_F4.1_[T8G]_[A9C]_T4.1 (ssRNA)
RNA: B2 RNA with G30U
B35: Ic_S4_P4E.1_K4.1_C4.1_H4.1_A4.1_[T7A]_F4.1_[T8C]_[A9G]_T4.1 (ssRNA)
RNA: B2 RNA with C29A, G30A, G31C, C32G
B36: Ic_S4_P4E.1_K4.1_C4.1_H4.1_A4.1_[T7G]_F4.1_[T8C]_[A9T]_T4.1 (ssRNA)
RNA: B2 RNA with C29A, G31C, C32U
B37: Ic_S4_P4E.1_K4.1_C4.1_H4.1_A4.1_[T7G]_F4.1_[T8C]_[A9C]_T4.1 (ssRNA)
RNA: B2 RNA with C29A, G31C
B38: Ic_S4_P4E.1_K4.1_C4.1_H4.1_A4.1_[A6T]_[T7G]_F4.1_[T8C]_[A9G]_T4.1 (ssRNA)
RNA: B2 RNA with C29U, G31C, C32G
B39: Ic_S4_P4E.1_K4.1_C4.1_H4.1_A4.1_[A6C]_F4.1_[T8C]_[A9T]_T4.1 (ssRNA)
RNA: B2 RNA with G30U, G31C, C32U
B40: Ic_S4_P4E.1_K4.1_C4.1_H4.1_A4.1_[A6C]_[T7G]_F4.1_[T8C]_[A9C]_T4.1 (ssRNA)
RNA: B2 RNA with G31C
B41: Ic_S4_P4E.1_K4.1_C4.1_H4.1_A4.1_[A6T]_F4.1_[T8G]_[A9T]_T4.1 (ssRNA)
RNA: B2 RNA with C29U, G30U, C32U
B42: Ic_S4_P4E.1_K4.1_C4.1_H4.1_A4.1_[A6T]_[T7C]_F4.1_[T8A]_[A9T]_T4.1 (ssRNA)
RNA: B2 RNA with C29U, G30C, G31A, C32U
B43: Ic_S4_P4E.1_K4.1_C4.1_H4.1_A4.1_[A6C]_F4.1_[T8C]_[A9G]_T4.1 (ssRNA)
RNA: B2 RNA with G30U, G31C, C32G
B44: Ic_S4_P4E.1_K4.1_C4.1_H4.1_A4.1_[A6C]_F4.1_[T8C]_[A9C]_T4.1 (ssRNA)
RNA: B2 RNA with G30U, G31C
B45: Ic_S4_P4E.1_K4.1_C4.1_H4.1_A4.1_F4.1_[T8A]_T4.1 (ssRNA)
RNA: B2 RNA with C29A, G30U, G31A, C32A
B46: Ic_S4_P4E.1_K4.1_C4.1_H4.1_A4.1_[A6C]_[T7A]_F4.1_[A9G]_T4.1 (ssRNA)
RNA: B2 RNA with G30A, G31U, C32G
B47: Ic_S4_P4E.1_K4.1_C4.1_H4.1_A4.1_[A6T]_[T7A]_F4.1_[A9C]_T4.1 (ssRNA)
RNA: B2 RNA with C29U, G30A, G31U
B48: Ic_S4_P4E.1_K4.1_C4.1_H4.1_A4.1_F4.1_[T8C]_[A9C]_T4.1 (ssRNA)
RNA: B2 RNA with C29A, G30U, G31C
B49: Ic_S4_P4E.1_K4.1_C4.1_H4.1_A4.1_[A6C]_[T7C]_F4.1_[T8G]_[A9T]_T4.1 (ssRNA)
RNA: B2 RNA with G30C, C32U
B50: Ic_S4_P4E.1_K4.1_C4.1_H4.1_A4.1_[A6T]_F4.1_[T8C]_[A9C]_T4.1 (ssRNA)
RNA: B2 RNA with C29U, G30U, G31C
B51: Ic_S4_P4E.1_K4.1_C4.1_H4.1_A4.1_[A6C]_[T7G]_F4.1_[T8A]_[A9C]_T4.1 (ssRNA)
RNA: B2 RNA with G31A
B52: Ic_S4_P5E.1_K5.1_C5.1_H5.1_A5.1_[T5C]_[T6C]_F5.1_[T8A]_[T9C]_[A10C]_T5.1 (ssRNA)
RNA: UUUGACAACUGAUCGUUCUUUCUUGUACCAACCUUCUUUCUCGAUCAGUUGUCUUU
B53: Ic_S4_P5E.1_K5.1_C5.1_H5.1_A5.1_[T5A]_[T6C]_[A7C]_F5.1_[T8G]_[T9C]_[A10C]_T5.1 (ssRNA)
RNA: B52 RNA with C28A, A30C, A31G
B54: Ia_S1_P4E.1_K4.1_C4.1_H4.1_[A4T]_A4.1_F4.1_T4.1 (ssRNA)
RNA: UCUCUUUGUUUAUUAUCUCUU
B55: Ic_S1_P4E.1_K4.1_C4.1_H4.1_A4.1_[T5C]_F4.1_[A9G]_T4.1 (ssRNA)
RNA: UCUCUUUGUACAUUGUCUCUU
B56: Ib_S1_P4E.1_K4.1_C4.1_H4.1_A4.1_[T7A]_F4.1_[T8C]_T4.1 (ssRNA)
RNA: UCUCUUUGUAUAACAUCUCUU
B57: Ib_S1_P4E.1_K4.1_C4.1_H4.1_A4.1_[T7C]_F4.1_[T8A]_T4.1 (ssRNA)
RNA: UCUCUUUGUAUACAAUCUCUU
B58: Ib_S1_P4E.1_K4.1_C4.1_H4.1_A4.1_[T7A]_F4.1_[T8A]_T4.1 (ssRNA)
RNA: UCUCUUUGUAUAAAAUCUCUU

Target: T1, PUF4 RNA-binding domain
Assay: Mg; RNA-MaP; 20 mM Na-HEPES pH 7.4, 30 mM KOAc, 0.75 mM MgCl2, 0.1% Tween-20, 5% glycerol, 0.1 mg/mL BSA, 2 mM DTT; 25 C; 0.0125-409.6 nM protein
Details: tags: N-His6-TEV cleaved; C-SNAP kept, Cy3B-labelled; label: tethered on chip by stalled RNA polymerase

Binder | Kd
B1 | 13.1 nM
B2 | > 2300 nM
B3 | 577 nM
B4 | 477 nM
B5 | 61.9 nM
B6 | 537 nM
B7 | 27.5 nM
B8 | 89.5 nM
B9 | 34.4 nM
B10 | 436 nM
B11 | 417 nM
B12 | 27.8 nM
B13 | 230 nM
B14 | 95 nM
B15 | 449 nM
B16 | 20.4 nM
B17 | 191 nM
B18 | 10.2 nM
B19 | 1310 nM
B20 | 29.9 nM

Binder | Kd
B21 | 40.4 nM
B22 | 51.1 nM
B23 | 34.1 nM
B24 | 4.49 nM
B25 | 794 nM
B26 | 12.1 nM
B27 | 75.1 nM
B28 | 50.5 nM
B29 | 425 nM
B30 | 158 nM
B31 | 21.1 nM
B32 | 0.362 nM
B33 | 403 nM
B34 | 52 nM
B35 | 40.4 nM
B36 | 49.5 nM
B37 | 87.3 nM
B38 | 593 nM
B39 | 16.7 nM
B40 | 994 nM

Binder | Kd
B41 | 46.1 nM
B42 | 113 nM
B43 | 31.1 nM
B44 | 31.5 nM
B45 | 2.9 nM
B46 | 10.1 nM
B47 | 38.3 nM
B48 | 12.3 nM
B49 | 172 nM
B50 | 74.5 nM
B51 | > 2300 nM
B52 | 424 nM
B53 | 1380 nM
B54 | 11.5 nM
B55 | 3.75 nM
B56 | 11.8 nM
B57 | 44.8 nM
B58 | 22.1 nM
